This is an account of results in the supplement of paper PMC7877785.

This series is described as follows: self-splicing fitness, log relative to wild type (ln ratio); higher = more splicing; Tetrahymena group I intron in knt gene, E. coli kanamycin selection, DiMSum; sequences stand for … in CUCUCU…GGAGGGAAAAGUUAUCAGGCAUGCACCUGGUAGCUAGUCUUUAAACCAAUAGAUUGCAUCGGUUUAAAAGGCAAGACCGUCAAAUUGCGGGAAAGGGGUCAACAGCCGUUCAGUACCAAGUCUCAGGGGAAACUUUGAGAUGGCCUUGCAAAGGGUAUGGUAAUAAGCUGACGGACAUGGUCCUAACCACGCAGCCAAGUCCUAAGUCAACAGAUCUUCUGUUGAUAUGGAUGCAGUUCACAGACUAAAUGUCGGUCGGGGAAGAUGUAUUCUUCUCAUAAGAUAUAGUCGGACCUCUCCUUAAUGGGAGCUAGCGGAUGAAGUGAUGCAACACUGGAGCCGCUGGGAACUAAUUUGUAUGCGAAAGUAUAUUGAUUAGUUUUGGAGUACUCGUGGUCG
The method in brief:
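Fitness was computed with DiMSum as the error-weighted combination of replicate fold changes, kanamycin versus none, each normalised to wild type. The library randomised all eight intron nucleotides of the P1ex region, with the intron placed in the knt kanamycin-resistance gene on pET-22b(+) in E. coli BL21(DE3). Six replicate transformations were grown overnight at 37°C or 30°C on LB agar with or without 25 μg/mL kanamycin, plus 100 μg/mL carbenicillin, 50 μM IPTG and 0.2% rhamnose. Pooled colonies were amplicon-sequenced on an Illumina HiSeq 2500.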

± gives the uncertainty stated by the source.

Regarding GGAGAGCAAUAUUACGUCCA, the “self-splicing fitness (ln)” value by setting is: (30 °C) -2.78 ± 0.2; (37 °C) -0.872 ± 0.18.
With AAAAAGCAAUAUUACGGCGU, the “self-splicing fitness (ln)” value is, setting by setting: (30 °C) -0.321 ± 0.078; (37 °C) 0.208 ± 0.098.
The like results for CGGUAGCAAUAUUACGAAUA were, in that order, -2.04 ± 0.35 and -1.67 ± 0.3.
The like results for UUAUAGCAAUAUUACGUCUG were, in that order, -0.366 ± 0.11 and -0.511 ± 0.13.
The like results for CACAAGCAAUAUUACGCAAA were, in that order, -3.29 ± 0.23 and -2.46 ± 0.28.
GGUCAGCAAUAUUACGGAAC: the “self-splicing fitness (ln)” value (30 °C) is -1.04 ± 0.1 and the “self-splicing fitness (ln)” value (37 °C) was -0.383 ± 0.14.
The like results for GGAUAGCAAUAUUACGACCA were, in that order, -0.97 ± 0.092 and -0.392 ± 0.13.
The like results for CGCAAGCAAUAUUACGCCUG were, in that order, -1.96 ± 0.13 and -2.52 ± 0.23.
With ACGUAGCAAUAUUACGGAUG, the “self-splicing fitness (ln)” value by setting is: (30 °C) -4.2 ± 0.24; (37 °C) -2.42 ± 0.21.
The like results for CCUAAGCAAUAUUACGCGGC were, in that order, -1.89 ± 0.33 and -2.13 ± 0.42.
The like results for AUGUAGCAAUAUUACGUGCU were, in that order, -1.29 ± 0.081 and -0.985 ± 0.09.
The like results for AAAGAGCAAUAUUACGUAUA were, in that order, -3.45 ± 0.37 and -1.89 ± 0.32.
As for ACUCAGCAAUAUUACGUACU, the “self-splicing fitness (ln)” value reads like this: (30 °C) -0.824 ± 0.056; (37 °C) -0.927 ± 0.063.
For CAAAAGCAAUAUUACGACGG, the “self-splicing fitness (ln)” value is 0.122 ± 0.076 (30 °C) and -0.14 ± 0.09 (37 °C).
The like results for GAGCAGCAAUAUUACGUAGG were, in that order, -2.83 ± 0.13 and -2.54 ± 0.2.
The like results for CGAUAGCAAUAUUACGCCGU were, in that order, -2.9 ± 0.15 and -1.78 ± 0.14.
The like results for UACUAGCAAUAUUACGUAGC were, in that order, -2.83 ± 0.17 and -2.19 ± 0.27.
UUACAGCAAUAUUACGCACG: the “self-splicing fitness (ln)” value was -1.13 ± 0.12 (30 °C) and 0.579 ± 0.13 (37 °C).
The like results for CUCGAGCAAUAUUACGCGGA were, in that order, -3.05 ± 0.24 and -2.63 ± 0.22.
The like results for GGUUAGCAAUAUUACGAUGC were, in that order, -0.237 ± 0.13 and -0.251 ± 0.16.
The like results for AUAGAGCAAUAUUACGAGCA were, in that order, -2.57 ± 0.19 and -0.949 ± 0.2.
Turning to AGAUAGCAAUAUUACGCGCG, the “self-splicing fitness (ln)” value was 0.343 ± 0.18 (30 °C) and -0.618 ± 0.2 (37 °C).
Consider GGUUAGCAAUAUUACGAGAU, for which the “self-splicing fitness (ln)” value (37 °C) is -1.66 ± 0.33.
Turning to UUUAAGCAAUAUUACGCAUG, the “self-splicing fitness (ln)” value was -1.07 ± 0.089 (30 °C) and -0.408 ± 0.099 (37 °C).
The like results for GCGUAGCAAUAUUACGGGUG were, in that order, -1.55 ± 0.08 and -1.46 ± 0.091.
The like results for AUAUAGCAAUAUUACGGCGC were, in that order, -1.38 ± 0.19 and -0.869 ± 0.26.
The like results for CUCAAGCAAUAUUACGCAGG were, in that order, -2.99 ± 0.23 and -2.84 ± 0.31.
For the sequence UCGCAGCAAUAUUACGGACG, the “self-splicing fitness (ln)” value (30 °C) was -1.44 ± 0.15 and the “self-splicing fitness (ln)” value (37 °C) was -0.806 ± 0.13.
The like results for GAUGAGCAAUAUUACGCCUC were, in that order, -2.56 ± 0.36 and -1.01 ± 0.38.
For CCGCAGCAAUAUUACGUAUG, the “self-splicing fitness (ln)” value runs as follows: (30 °C) -1.31 ± 0.055; (37 °C) -0.172 ± 0.068.
The like results for GCGCAGCAAUAUUACGAGGU were, in that order, -2.49 ± 0.2 and -1.24 ± 0.25.
The like results for CAGUAGCAAUAUUACGGCGA were, in that order, -2.45 ± 0.26 and -1.9 ± 0.29.
The like results for UACGAGCAAUAUUACGACGC were, in that order, -3 ± 0.27 and -2.09 ± 0.35.
Consider UAGCAGCAAUAUUACGUAAG, for which the “self-splicing fitness (ln)” value reads like this: (30 °C) -1.91 ± 0.078; (37 °C) -0.435 ± 0.091.
Consider UUGCAGCAAUAUUACGGUAA, for which the “self-splicing fitness (ln)” value reads like this: (30 °C) -0.988 ± 0.099; (37 °C) -0.0317 ± 0.093.
The like results for UUCUAGCAAUAUUACGUCCA were, in that order, -2.13 ± 0.19 and -0.134 ± 0.17.
The like results for UGGGAGCAAUAUUACGUUGA were, in that order, -3.73 ± 0.37 and -2.06 ± 0.27.
The like results for UGGAAGCAAUAUUACGCGGU were, in that order, -2.87 ± 0.17 and -2.69 ± 0.2.
For the sequence CCCUAGCAAUAUUACGCUAG, the “self-splicing fitness (ln)” value is -4.18 ± 0.34 (30 °C) and -2.47 ± 0.28 (37 °C).
As to CCUAAGCAAUAUUACGGAAA, the “self-splicing fitness (ln)” value (37 °C) is -2.27 ± 0.27.
Take UUGUAGCAAUAUUACGUUUU: the “self-splicing fitness (ln)” value is, setting by setting: (30 °C) -2.52 ± 0.24; (37 °C) -1.98 ± 0.17.
For CCAUAGCAAUAUUACGCAGC, for the setting “37 °C”, the “self-splicing fitness (ln)” value was -3.34 ± 0.42.
In the case of UCUAAGCAAUAUUACGAGGC, the “self-splicing fitness (ln)” value by setting is: (30 °C) -2.85 ± 0.31; (37 °C) -2.58 ± 0.38.
The like results for GGUGAGCAAUAUUACGUGGU were, in that order, -3.51 ± 0.47 and -2.36 ± 0.24.
The like results for GCGGAGCAAUAUUACGAUCU were, in that order, -1.97 ± 0.25 and -0.0473 ± 0.33.
The like results for CCCAAGCAAUAUUACGCUGG were, in that order, -3.55 ± 0.19 and -2.52 ± 0.19.
With AGCGAGCAAUAUUACGUUUU, the “self-splicing fitness (ln)” value is -3.47 ± 0.28 (30 °C) and -1.66 ± 0.22 (37 °C).
In the case of AAGGAGCAAUAUUACGUUAC, the “self-splicing fitness (ln)” value (37 °C) was -1.53 ± 0.35.
Consider UGAUAGCAAUAUUACGCCGU, for which the “self-splicing fitness (ln)” value reads like this: (30 °C) -4.2 ± 0.43; (37 °C) -2.01 ± 0.2.
The like results for CCGGAGCAAUAUUACGAUAG were, in that order, -0.959 ± 0.07 and -0.152 ± 0.081.
The like results for CUGGAGCAAUAUUACGUUCU were, in that order, -2.43 ± 0.26 and -1.68 ± 0.49.
The like results for GCAUAGCAAUAUUACGGAAC were, in that order, -3.61 ± 0.29 and -3.46 ± 0.34.
GCCCAGCAAUAUUACGGCCA: the “self-splicing fitness (ln)” value by setting is: (30 °C) -2.6 ± 0.27; (37 °C) -0.571 ± 0.18.
The like results for CAAGAGCAAUAUUACGUCGA were, in that order, -3.3 ± 0.21 and -2.2 ± 0.24.
Consider CUCCAGCAAUAUUACGGAGC, for which the “self-splicing fitness (ln)” value is -1.83 ± 0.12 (30 °C) and -2.69 ± 0.2 (37 °C).
On to CAGCAGCAAUAUUACGGUCC, for which the “self-splicing fitness (ln)” value (30 °C) is -3.63 ± 0.22 and the “self-splicing fitness (ln)” value (37 °C) is -1.63 ± 0.2.
The like results for CCUCAGCAAUAUUACGUCAG were, in that order, -2.92 ± 0.097 and -1.73 ± 0.1.
As to AUUGAGCAAUAUUACGCCGU, under “37 °C”, the “self-splicing fitness (ln)” value is -2.56 ± 0.49.
For GAACAGCAAUAUUACGAGUU, the “self-splicing fitness (ln)” value (30 °C) was -2.29 ± 0.092 and the “self-splicing fitness (ln)” value (37 °C) was -0.935 ± 0.1.
With GAAGAGCAAUAUUACGUCAG, the “self-splicing fitness (ln)” value by setting is: (30 °C) -3.58 ± 0.2; (37 °C) -3.03 ± 0.35.
As for AAAGAGCAAUAUUACGUGCG, the “self-splicing fitness (ln)” value was -2.69 ± 0.12 (30 °C) and -1.82 ± 0.13 (37 °C).
The like results for UAAAAGCAAUAUUACGAUCG were, in that order, 0.0746 ± 0.077 and 0.385 ± 0.1.
In the case of CUAAAGCAAUAUUACGGUAC, for the setting “37 °C”, the “self-splicing fitness (ln)” value was -2.35 ± 0.25.
The same measure, in the same setting: in the case of GAGGAGCAAUAUUACGUCGC it was -1.54 ± 0.33.
In the case of CGAAAGCAAUAUUACGGCUG, the “self-splicing fitness (ln)” value reads like this: (30 °C) 0.127 ± 0.11; (37 °C) 0.181 ± 0.13.
With GAGGAGCAAUAUUACGGCUA, the “self-splicing fitness (ln)” value is -1.75 ± 0.12 (30 °C) and -1.37 ± 0.11 (37 °C).
The like results for AAACAGCAAUAUUACGCCCC were, in that order, -1.63 ± 0.15 and -0.801 ± 0.19.
Turning to UCAGAGCAAUAUUACGGUCC, for the setting “30 °C”, the “self-splicing fitness (ln)” value was -2.18 ± 0.24.
Turning to CUCCAGCAAUAUUACGGUUU, the “self-splicing fitness (ln)” value reads like this: (30 °C) -2.02 ± 0.11; (37 °C) -2.39 ± 0.19.
The like results for ACGUAGCAAUAUUACGUAUU were, in that order, -3.93 ± 0.17 and -2.48 ± 0.15.
In the case of GCAGAGCAAUAUUACGAGUU, the “self-splicing fitness (ln)” value (30 °C) was -4.28 ± 0.16 and the “self-splicing fitness (ln)” value (37 °C) is -1.82 ± 0.095.
The like results for CUGCAGCAAUAUUACGAUUA were, in that order, -3.35 ± 0.28 and -2.32 ± 0.16.
For the sequence UAAAAGCAAUAUUACGUCAC, the “self-splicing fitness (ln)” value is, setting by setting: (30 °C) -3 ± 0.2; (37 °C) -2.25 ± 0.28.
The like results for CACAAGCAAUAUUACGCACG were, in that order, -0.378 ± 0.067 and -0.684 ± 0.075.
Take GAUGAGCAAUAUUACGUCAG: the “self-splicing fitness (ln)” value (30 °C) is -3.78 ± 0.32 and the “self-splicing fitness (ln)” value (37 °C) was -2.31 ± 0.26.
The like results for UGGAAGCAAUAUUACGUAAA were, in that order, -2.28 ± 0.21 and 0.0471 ± 0.21.
The like results for CUGUAGCAAUAUUACGGUAG were, in that order, -2.9 ± 0.21 and -1.98 ± 0.25.
